Test results: the supplement of paper PMC9732359
± gives the uncertainty stated by the source.

Test: protein stability index of a GFP-peptide fusion (yeast GPS) (PSI 1-4); higher = more stable; sorted into four equal gates, so the index is relative within each strain
In short: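 Yeast carrying a pooled library were grown to mid-log phase in leucine-free medium. Each library plasmid expresses Cherry and has a tiled 17-residue yeast protein peptide fused downstream of GFP. Cells were sorted into four equal gates by GFP/Cherry ratio, and plasmids from each gate were PCR-amplified, Illumina-sequenced and assigned to strains by barcode. Summing, across gates, the read frequency times the gate number gave each peptide's protein stability index.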

Sequence | protein stability index (doa10∆) | protein stability index (pdr5∆) | protein stability index (san1∆) | protein stability index (ubr1∆)
IETVMTQEQFVKRRRDM [SRB4] | 2.94 ± 0.22 | 3.24 ± 0.12 | 2.92 ± 0.1 | 2.49 ± 0.26
NDQDMFTIVSLVQLKKF [YML103C/NUP188] | 2.18 ± 0.12 | 2.84 ± 0.11 | 1.93 ± 0.17 | 2.04 ± 0.14
NVPVHVSPAFRVQVGDI [RPS11A] | 2.69 ± 0.075 | 3.15 ± 0.08 | 2.68 ± 0.079 | 2.71 ± 0.06
KAKFTSLAVRSLQDRSS [YCS4] | 2.15 ± 0.042 | 2.3 ± 0.05 | 2.13 ± 0.054 | 2.24 ± 0.036
FNELCDPESRTQSYNNQ [POP1] | 3.09 ± 0.14 | 3.02 ± 0.12 | 2.95 ± 0.11 | 2.96 ± 0.084
DFDLFKEVLPDLQNLNL [YJL039C/NUP192] | 3.44 ± 0.095 | 3.17 ± 0.11 | 3.19 ± 0.07 | 3.4 ± 0.16
QESFINTMSAWVNMLLI [FAS2] | 2.2 ± 0.077 | 2.12 ± 0.085 | 2.08 ± 0.1 | 2.37 ± 0.066
PLYVMDEIDAALDFRNV [SMC4] | 2.5 ± 0.059 | 2.33 ± 0.066 | 3.26 ± 0.051 | 2.51 ± 0.048
IYLLFQSSGKLKEYLDL [YDL116W/NUP84] | 2.51 ± 0.051 | 2.44 ± 0.052 | 2.52 ± 0.048 | 2.6 ± 0.038
KLKLLRMERIKDHLLLE [RPT2] | 2.27 ± 0.079 | 2.05 ± 0.064 | 2.12 ± 0.092 | 1.86 ± 0.054
KEQENITIQDLLFPKST [DPB4] | 3.05 ± 0.1 | 2.64 ± 0.13 | 2.52 ± 0.087 | 2.75 ± 0.086
LLRIQMLLCVSYFLQER [PCI8] | 1.29 ± 0.046 | 1.45 ± 0.044 | 1.35 ± 0.074 | 1.22 ± 0.052
VTNIRRIIQDNISPRLV [RRP46] | 2.3 ± 0.09 | 2.63 ± 0.1 | – | 2.23 ± 0.074
LVHDGLARGLRESTKAL [RPS12] | 3.41 ± 0.091 | 3.52 ± 0.15 | 3.19 ± 0.17 | 2.83 ± 0.17
HDVGELFWKVKEEEGSF [PRE2] | 2.71 ± 0.081 | 2.97 ± 0.08 | 2.92 ± 0.064 | 2.86 ± 0.07
IGGLIPQWKRHLEEYGY [YCS4] | 2.47 ± 0.068 | 2.83 ± 0.065 | 1.9 ± 0.14 | 2.9 ± 0.057
HIVQDCTLTADGAYALS [ASC1] | 2.37 ± 0.057 | 2.69 ± 0.062 | 2.52 ± 0.12 | 2.44 ± 0.064
NNDFKLSIDKVLKKPNR [RET1] | 2.06 ± 0.092 | 2.84 ± 0.12 | 3.01 ± 0.1 | 2.94 ± 0.13
GYILEGEELAFYLRRLT [RPS8A] | 1.26 ± 0.078 | 1.41 ± 0.07 | 1.24 ± 0.17 | 1.31 ± 0.25
ELGISLEHPYGKEVEVL [SNU114] | 2.29 ± 0.082 | 2.34 ± 0.086 | 2.17 ± 0.094 | 2.14 ± 0.056
KAPKIQRLVTPQRLQRK [RPS6A] | 2.77 ± 0.06 | 2.95 ± 0.049 | 2.91 ± 0.042 | 2.94 ± 0.039
KIKQYERLRFYKDTFTL [RRI1] | 2.78 ± 0.056 | 2.54 ± 0.055 | 2.4 ± 0.049 | 2.81 ± 0.039
TLHLVLRLRGGIIEPSL [RPL40A] | 2.99 ± 0.056 | 2.81 ± 0.049 | 2.58 ± 0.056 | 2.77 ± 0.044
WGAETDELSMIMEHFSQ [RPS12] | 2.93 ± 0.11 | 3.12 ± 0.17 | 3.44 ± 0.071 | 3.29 ± 0.12
QGPVKNTQLHGPSATDP [RGR1] | 2.93 ± 0.062 | 3.06 ± 0.047 | 2.97 ± 0.053 | 3.02 ± 0.035
ETELFEPGVLNTGDGSI [ECM29] | 3.25 ± 0.15 | 3.2 ± 0.11 | 2.92 ± 0.12 | 3.07 ± 0.11
